B1: ZBED3 (parent)
chain: GPGFHAGTSALWRHLRSAHRRELE

Variants of: B1
Assay: protein stability index of a GFP-peptide fusion (GPS, HEK-293T) (PSI 1-6); higher = more stable
Details: c terminus: a fixed tail appended
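Note: lentivirally expressed fusions sorted by FACS into six bins by GFP to DsRed ratio, PSI derived from sequencing read proportions per bin multiplied by bin number.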

Protein stability index, by site and new letter:
A18: D 2.02; G 1.89; M 1.77; I 2.12; F 2.07; H 2.04; E 3.1; Y 1.85; K 2.81; L 2.79; V 1.99
L11: E 2.52; Y 3.19; R 3.19; Q 2.54; D 3.33; M 2.64; A 1.71; C 2.41; W 2.85; G 1.74; I 2.32
R21: F 1.02; D 2.35; W 2.07; I 1.97; Q 2.52; G 1.75; V 1.53; K 2.51; S 1.84; P 1.95; C 4.08
G7: Q 2.47; S 2.73; R 2; T 2.21; M 2.35; A 2.62; W 1.52; L 1.45; N 2.69; D 3.25; C 1.75
R16: H 2.17; W 1.66; C 1.62; T 2.23; L 1.81; P 2.33; I 2.12; Q 2.33; K 2.41
T8: S 2.89; E 2.48; H 2.4; W 2.23; L 2.52; P 2.88; Q 1.98; I 2.09; M 2.37; G 2.26; K 2.5
E22: P 1.77; A 2.76; F 2.43; N 1.95; T 2.23; D 2.06
L23: T 1.97; Y 2.42; N 2.03; D 1.95; H 2.37; C 2.14; V 1.92; A 2.83; G 2.32; S 2.36; K 2.79; F 2.11; M 2.32; P 1.98; E 2.07; I 2.19
G3: I 2.5; E 3.67; W 1.96; R 3.96; V 3.1; F 1.74; S 2.9; H 3.25; C 3.23; K 3.26; D 3.13; A 3.22; T 3.75; L 3.26; P 3.38
A10: P 2.28; I 1.85; W 2.38; N 2.67; S 2.52; G 2.67; E 4.86; M 2.02; D 3.22; T 3.08; V 2.6
A6: K 2.3; N 2; F 1.83; V 1.85; G 2.54; R 3.08; I 2.06; P 2.77; T 2.33
G1: I 2.76; D 3.87; Y 2.1; M 3.18; V 2.9; C 2.65; T 3.33; Q 3.51; F 1.96; E 3.11; L 2.52; N 3.45
H5: C 3.46; I 2.15; N 3.06; A 3.33; K 2.67; L 2.24; M 2.82; W 2.76; Y 2.89; V 2.75; T 3.16; F 2.88; D 3.69
F4: W 2.22; N 2.84; T 3.75; K 3.62; G 3.01; P 3.59; I 2.99; H 3.16; L 3.3; M 2.68
R20: D 2.01; E 2.08; H 1.37; W 2.83; Y 1.62; V 2.06; K 2.54; I 1.74; A 1.82; P 2.54; S 1.86

Reference: the supplement of paper PMC10567573
